According to patent US20220056104A1 (Janssen / Centocor, published 2022):

Columns and labels:
[1] = molecular target: T1, Recombinant DR3-Fc (R&D Systems, cat. #943-D3) (UniProt Q93038 25-199, limits assumed); experiment: ELISA, DR3-Fc immobilized
T1 construct: dimeric MW~92 kDa; also called DR3 receptor; Fc-DR3; not shown: Fc part of the bought fusion
T1 sequence (looked up): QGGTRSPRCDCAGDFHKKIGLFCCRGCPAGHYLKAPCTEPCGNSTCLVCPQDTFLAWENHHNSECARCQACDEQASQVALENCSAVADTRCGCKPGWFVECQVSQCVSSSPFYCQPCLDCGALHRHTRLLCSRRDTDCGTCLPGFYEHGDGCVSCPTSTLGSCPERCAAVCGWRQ
Procedure: All ELISA-based measurements were collected in triplicate, and error values report the standard error between measurements. Recombinant DR3-Fc (R&D Systems, cat. #943-D3), dimeric MW˜92 kDa, was non-specifically immobilized onto plates (Nunc maxisorp, cat. #436110) in 100 μL DR3-Fc, diluted to 10 μg/mL onto a 96-well White Maxisorp plate (Nunc, cat #436110) (O/N, 4° C.). Plates were block for 1 hour at room temperature with 250 μl/well of casein buffer and blocking buffer was removed. 50 μL of TL1A variants were diluted in StartingBlock PBS (Thermo Fisher Scientific), at 25 μg/mL, diluting 3× over each well, according to the plate map description for 20160623) per well on a 96-well White Maxisorp plate (Nunc, cat #: 436110) (overnight at 4° C.).
Plates were washed three times with TBST. 100 μl/well polyclonal rabbit anti-human TL1A-biotin antibody (diluted 1:1000 in Starting Block PBS) was added and plates were incubated for 1 hour at room temperature with shaking at 150 rpm. TL1A-biotin antibody was removed and 100 μl/well streptavidin-HRP conjugate (diluted 1:10,000 in Starting Block PBS) was added to plates. Plates were incubated for 1 hour at room temperature with shaking at 150 rpm. Plates were washed three times with TBST. 100 μl/well POD Chemiluminescence substrate (Roche, cat #: 11582950001) was added immediately prior to reading plate luminescence using a Molecular Devices M5 plate reader with a delay setting of 100 ms.
Variants of TL1A were generated and tested for binding to DR3 and DcR3 by ELISA as described.

[2] = molecular target: T2, DcR3 (UniProt O95407 30-300, limits assumed); experiment: ELISA, DcR3
T2 construct: the construct is not described; also called decoy receptor DcR3; TNFRSF6B
T2 sequence (looked up): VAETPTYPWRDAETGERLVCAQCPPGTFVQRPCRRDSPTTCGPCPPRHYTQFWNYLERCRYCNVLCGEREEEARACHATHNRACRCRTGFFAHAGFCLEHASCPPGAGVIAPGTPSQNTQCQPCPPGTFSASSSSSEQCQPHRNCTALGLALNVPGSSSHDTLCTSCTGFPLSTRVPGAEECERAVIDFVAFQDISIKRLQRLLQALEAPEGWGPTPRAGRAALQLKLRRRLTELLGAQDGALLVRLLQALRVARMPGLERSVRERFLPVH

Binder | EC50 [1] | Rel EC50 [1] | EC50 [2] | Rel EC50 [2]
TL1W82 (His-TEV-TL1A K111E) (ligand, also called TL1W82 (K111E)) HHHHHHENLYFQGLKGQEFAPSHQQVYAPLRADGDKPRAHLTVVRQTPTQHFENQFPALHWEHELGLAFTKNRMNYTNKFLLIPESGDYFIYSQVTFRGMTSECSEIRQAGRPNKPDSITVVITKVTDSYPEPTQLLMGTKSVCEVGSNWFQPIYLGAMFSLQEGDKLMVNVSDISLVDYTKEDKTFFGAFLL | 25.8 nM | 1 ratio (head: nM) | 10.6 nM | 2.3 ratio (head: nM)
TL1W84 (His-TEV-TL1A E120H) (ligand, also called TL1W84 (E120H)) HHHHHHENLYFQGLKGQEFAPSHQQVYAPLRADGDKPRAHLTVVRQTPTQHFKNQFPALHWHHELGLAFTKNRMNYTNKFLLIPESGDYFIYSQVTFRGMTSECSEIRQAGRPNKPDSITVVITKVTDSYPEPTQLLMGTKSVCEVGSNWFQPIYLGAMFSLQEGDKLMVNVSDISLVDYTKEDKTFFGAFLL | 182 nM | 7 ratio (head: nM) | 55.7 nM | 12.1 ratio (head: nM)
TL1W104 (His-TEV-TL1A T185L) (ligand, also called TL1W104 (T185L)) HHHHHHENLYFQGLKGQEFAPSHQQVYAPLRADGDKPRAHLTVVRQTPTQHFKNQFPALHWEHELGLAFTKNRMNYTNKFLLIPESGDYFIYSQVTFRGMTSECSEIRQAGRPNKPDSITVVITKVLDSYPEPTQLLMGTKSVCEVGSNWFQPIYLGAMFSLQEGDKLMVNVSDISLVDYTKEDKTFFGAFLL | 49.4 nM | 1.9 ratio (head: nM) | 19.3 nM | 4.2 ratio (head: nM)
TL1W96 (His-TEV-TL1A R170E) (ligand, also called TL1W96 (R170E)) HHHHHHENLYFQGLKGQEFAPSHQQVYAPLRADGDKPRAHLTVVRQTPTQHFKNQFPALHWEHELGLAFTKNRMNYTNKFLLIPESGDYFIYSQVTFRGMTSECSEIRQAGEPNKPDSITVVITKVTDSYPEPTQLLMGTKSVCEVGSNWFQPIYLGAMFSLQEGDKLMVNVSDISLVDYTKEDKTFFGAFLL | 87 nM | 3.3 ratio (head: nM) | 16.4 nM | 3.6 ratio (head: nM)
TL1W102 (His-TEV-TL1A S176K) (ligand, also called TL1W102 (S176K)) HHHHHHENLYFQGLKGQEFAPSHQQVYAPLRADGDKPRAHLTVVRQTPTQHFKNQFPALHWEHELGLAFTKNRMNYTNKFLLIPESGDYFIYSQVTFRGMTSECSEIRQAGRPNKPDKITVVITKVTDSYPEPTQLLMGTKSVCEVGSNWFQPIYLGAMFSLQEGDKLMVNVSDISLVDYTKEDKTFFGAFLL | 182 nM | 6.9 ratio (head: nM) | 29.2 nM | 6.3 ratio (head: nM)
TL1W97 (His-TEV-TL1A K173S) (ligand, also called TL1W97 (K173S)) HHHHHHENLYFQGLKGQEFAPSHQQVYAPLRADGDKPRAHLTVVRQTPTQHFKNQFPALHWEHELGLAFTKNRMNYTNKFLLIPESGDYFIYSQVTFRGMTSECSEIRQAGRPNSPDSITVVITKVTDSYPEPTQLLMGTKSVCEVGSNWFQPIYLGAMFSLQEGDKLMVNVSDISLVDYTKEDKTFFGAFLL | 131 nM | 5 ratio (head: nM) | 6.7 nM | 1.5 ratio (head: nM)
TL1W107 (His-TEV-TL1A D186Y) (ligand, also called TL1W107 (D186Y)) HHHHHHENLYFQGLKGQEFAPSHQQVYAPLRADGDKPRAHLTVVRQTPTQHFKNQFPALHWEHELGLAFTKNRMNYTNKFLLIPESGDYFIYSQVTFRGMTSECSEIRQAGRPNKPDSITVVITKVTYSYPEPTQLLMGTKSVCEVGSNWFQPIYLGAMFSLQEGDKLMVNVSDISLVDYTKEDKTFFGAFLL | 63.8 nM | 2.4 ratio (head: nM) | 6.2 nM | 1.4 ratio (head: nM)
TL1W105 (His-TEV-TL1A T185N) (ligand, also called TL1W105 (T185N)) HHHHHHENLYFQGLKGQEFAPSHQQVYAPLRADGDKPRAHLTVVRQTPTQHFKNQFPALHWEHELGLAFTKNRMNYTNKFLLIPESGDYFIYSQVTFRGMTSECSEIRQAGRPNKPDSITVVITKVNDSYPEPTQLLMGTKSVCEVGSNWFQPIYLGAMFSLQEGDKLMVNVSDISLVDYTKEDKTFFGAFLL | 180 nM | 6.9 ratio (head: nM) | 11.3 nM | 2.4 ratio (head: nM)
TL1W85 (His-TEV-TL1A G124S) (ligand, also called TL1W85 (G124S)) HHHHHHENLYFQGLKGQEFAPSHQQVYAPLRADGDKPRAHLTVVRQTPTQHFKNQFPALHWEHELSLAFTKNRMNYTNKFLLIPESGDYFIYSQVTFRGMTSECSEIRQAGRPNKPDSITVVITKVTDSYPEPTQLLMGTKSVCEVGSNWFQPIYLGAMFSLQEGDKLMVNVSDISLVDYTKEDKTFFGAFLL | 296 nM | 11.3 ratio (head: nM) | 57.1 nM | 12.4 ratio (head: nM)
TL1W90 (His-TEV-TL1A R156K) (ligand, also called TL1W90 (R156K)) HHHHHHENLYFQGLKGQEFAPSHQQVYAPLRADGDKPRAHLTVVRQTPTQHFKNQFPALHWEHELGLAFTKNRMNYTNKFLLIPESGDYFIYSQVTFKGMTSECSEIRQAGRPNKPDSITVVITKVTDSYPEPTQLLMGTKSVCEVGSNWFQPIYLGAMFSLQEGDKLMVNVSDISLVDYTKEDKTFFGAFLL | 188 nM | 7.2 ratio (head: nM) | 11 nM | 2.4 ratio (head: nM)
TL1W99 (His-TEV-TL1A S176A) (ligand, also called TL1W99 (S176A)) HHHHHHENLYFQGLKGQEFAPSHQQVYAPLRADGDKPRAHLTVVRQTPTQHFKNQFPALHWEHELGLAFTKNRMNYTNKFLLIPESGDYFIYSQVTFRGMTSECSEIRQAGRPNKPDAITVVITKVTDSYPEPTQLLMGTKSVCEVGSNWFQPIYLGAMFSLQEGDKLMVNVSDISLVDYTKEDKTFFGAFLL | 34.8 nM | 1.3 ratio (head: nM) | 11.5 nM | 2.5 ratio (head: nM)
TL1W103 (His-TEV-TL1A T185A) (ligand, also called TL1W103 (T185A)) HHHHHHENLYFQGLKGQEFAPSHQQVYAPLRADGDKPRAHLTVVRQTPTQHFKNQFPALHWEHELGLAFTKNRMNYTNKFLLIPESGDYFIYSQVTFRGMTSECSEIRQAGRPNKPDSITVVITKVADSYPEPTQLLMGTKSVCEVGSNWFQPIYLGAMFSLQEGDKLMVNVSDISLVDYTKEDKTFFGAFLL | 57.9 nM | 2.2 ratio (head: nM) | 11.5 nM | 2.5 ratio (head: nM)
TL1W106 (His-TEV-TL1A T185D) (ligand, also called TL1W106 (T185D)) HHHHHHENLYFQGLKGQEFAPSHQQVYAPLRADGDKPRAHLTVVRQTPTQHFKNQFPALHWEHELGLAFTKNRMNYTNKFLLIPESGDYFIYSQVTFRGMTSECSEIRQAGRPNKPDSITVVITKVDDSYPEPTQLLMGTKSVCEVGSNWFQPIYLGAMFSLQEGDKLMVNVSDISLVDYTKEDKTFFGAFLL | 124 nM | 4.7 ratio (head: nM) | 79.9 nM | 17.4 ratio (head: nM)
TL1W93 (His-TEV-TL1A M158K) (ligand, also called TL1W93 (M158K)) HHHHHHENLYFQGLKGQEFAPSHQQVYAPLRADGDKPRAHLTVVRQTPTQHFKNQFPALHWEHELGLAFTKNRMNYTNKFLLIPESGDYFIYSQVTFRGKTSECSEIRQAGRPNKPDSITVVITKVTDSYPEPTQLLMGTKSVCEVGSNWFQPIYLGAMFSLQEGDKLMVNVSDISLVDYTKEDKTFFGAFLL | 22.5 nM | 0.9 ratio (head: nM) | 55.9 nM | 12.1 ratio (head: nM)
TL1W100 (His-TEV-TL1A S176L) (ligand, also called TL1W100 (S176L)) HHHHHHENLYFQGLKGQEFAPSHQQVYAPLRADGDKPRAHLTVVRQTPTQHFKNQFPALHWEHELGLAFTKNRMNYTNKFLLIPESGDYFIYSQVTFRGMTSECSEIRQAGRPNKPDLITVVITKVTDSYPEPTQLLMGTKSVCEVGSNWFQPIYLGAMFSLQEGDKLMVNVSDISLVDYTKEDKTFFGAFLL | 324 nM | 12.4 ratio (head: nM) | 15 nM | 3.3 ratio (head: nM)
TL1W94 (His-TEV-TL1A M158E) (ligand, also called TL1W94 (M158E)) HHHHHHENLYFQGLKGQEFAPSHQQVYAPLRADGDKPRAHLTVVRQTPTQHFKNQFPALHWEHELGLAFTKNRMNYTNKFLLIPESGDYFIYSQVTFRGETSECSEIRQAGRPNKPDSITVVITKVTDSYPEPTQLLMGTKSVCEVGSNWFQPIYLGAMFSLQEGDKLMVNVSDISLVDYTKEDKTFFGAFLL | 58.7 nM | 2.2 ratio (head: nM) | 18.7 nM | 4.1 ratio (head: nM)
TL1W98 (His-TEV-TL1A K173R) (ligand, also called TL1W98 (K173R)) HHHHHHENLYFQGLKGQEFAPSHQQVYAPLRADGDKPRAHLTVVRQTPTQHFKNQFPALHWEHELGLAFTKNRMNYTNKFLLIPESGDYFIYSQVTFRGMTSECSEIRQAGRPNRPDSITVVITKVTDSYPEPTQLLMGTKSVCEVGSNWFQPIYLGAMFSLQEGDKLMVNVSDISLVDYTKEDKTFFGAFLL | 2050 nM | 78.4 ratio (head: nM) | 27.8 nM | 6 ratio (head: nM)
